Key:
Conditions in all cases: Sus scrofa
[1] = test system: NCc1cocc1C(=O)O; test: (§1) Activity of pig GABA aminotransferase using alpha-ketoglutarate as substrate after 16 hrs by Hanes-Woolf plot analysis
[2] = test system: NCc1cscc1C(=O)O; test: as §1
[3] = test system: NCc1csc(C(=O)O)c1; test: as §1
[4] = test system: NCc1ccc(C(=O)O)o1; test: as §1
[5] = test system: NCc1c[nH]c(C(=O)O)c1; test: as §1
[6] = test system: NCc1coc(C(=O)O)c1; test: as §1
[7] = test system: NCc1ccc(C(=O)O)s1; test: as §1
[8] = test system: NCc1ccc(C(=O)O)[nH]1; test: as §1
[9] = test system: NCc1cocc1C(=O)O; test: (§2) Ratio of Kcat to Km for pig GABA aminotransferase
[10] = test system: NCc1csc(C(=O)O)c1; test: as §2
[11] = test system: NCc1ccc(C(=O)O)o1; test: as §2
[12] = test system: NCc1c[nH]c(C(=O)O)c1; test: as §2
[13] = test system: NCc1coc(C(=O)O)c1; test: as §2
[14] = test system: NCc1ccc(C(=O)O)s1; test: as §2
[15] = test system: NCc1ccc(C(=O)O)[nH]1; test: as §2

4-aminobutyrate aminotransferase, mitochondrial (Sus scrofa), P80147, sequence (P80147 whole entry): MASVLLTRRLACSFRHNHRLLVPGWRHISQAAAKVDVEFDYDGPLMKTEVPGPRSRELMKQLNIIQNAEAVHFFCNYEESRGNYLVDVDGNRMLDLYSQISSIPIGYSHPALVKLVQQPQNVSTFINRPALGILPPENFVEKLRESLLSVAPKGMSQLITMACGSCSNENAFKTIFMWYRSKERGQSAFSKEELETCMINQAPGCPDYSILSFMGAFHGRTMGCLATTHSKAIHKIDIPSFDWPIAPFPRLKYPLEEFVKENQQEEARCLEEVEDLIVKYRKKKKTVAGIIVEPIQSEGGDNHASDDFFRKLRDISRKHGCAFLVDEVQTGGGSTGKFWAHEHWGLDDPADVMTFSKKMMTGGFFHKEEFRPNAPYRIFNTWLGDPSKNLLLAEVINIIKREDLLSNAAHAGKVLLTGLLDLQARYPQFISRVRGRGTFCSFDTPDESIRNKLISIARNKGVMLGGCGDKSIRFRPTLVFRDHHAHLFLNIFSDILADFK

4-aminobutyrate aminotransferase, mitochondrial (Sus scrofa), P80147
Km [1]: 2800 µM
kcat [1]: 8.3 ×10⁻⁴ /min
Km [2]: > 10000 µM
Km [3]: 1700 µM
kcat [3]: 5.2 ×10⁻³ /min
Km [4]: 2100 µM
kcat [4]: 3.4 ×10⁻² /min
Km [5]: 1400 µM
kcat [5]: 3.4 ×10⁻³ /min
Km [6]: 310 µM
kcat [6]: 2.3 ×10⁻³ /min
Km [7]: 6300 µM
kcat [7]: 1 ×10⁻² /min
Km [8]: 9500 µM
kcat [8]: 1.5 ×10⁻³ /min
kcat/Km [9]: 0.005 M⁻¹ s⁻¹
kcat/Km [10]: 0.00517 M⁻¹ s⁻¹
kcat/Km [11]: 0.267 M⁻¹ s⁻¹
kcat/Km [12]: 0.04 M⁻¹ s⁻¹
kcat/Km [13]: 0.123 M⁻¹ s⁻¹
kcat/Km [14]: 0.0267 M⁻¹ s⁻¹
kcat/Km [15]: 0.00267 M⁻¹ s⁻¹

From ChEMBL document CHEMBL2146416
